# Reference: paper PMC6648891
# T1: FOXC2 DBD (Homo sapiens, UniProt Q99958 60-198)
# T1 sequence: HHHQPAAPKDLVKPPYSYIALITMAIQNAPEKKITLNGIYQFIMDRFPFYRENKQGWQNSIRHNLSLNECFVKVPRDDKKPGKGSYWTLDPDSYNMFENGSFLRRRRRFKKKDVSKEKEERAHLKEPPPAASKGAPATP
# B1: 16 bp EMSA DNA (dsDNA)
# DNA 1: CAAGGTAAACAAACCA
# DNA 2: TGGTTTGTTTACCTTG
# Target: T1, FOXC2 DBD
# Assay: EMSA
binder,measurement,value
B1,Kd,26.4 µM
